Square brackets hold non-standard residues; d marks the D form. Ends that are not written are not given here. * marks the point of attachment. FITC = O=C1OC2(c3ccc(O)cc3Oc3cc(O)ccc32)c2ccc(NC(=S)*)cc21; pS = N[C@@H](COP(=O)(O)O)C(=O)O
T1: FITC-RLTpSTRL (RPS6KA2 peptide, phosphorylated at p-3) (human)
T1 construct: C-terminal peptide of human RPS6KA2; source: synthetic peptide, bought: GeneCust
T1 peptide: {FITC}-RLT[pS]TRL

T2: FITC-HTNETpSL (MCC peptide, phosphorylated at p-1) (human)
T2 construct: C-terminal peptide of human MCC; also called pMCC; source: synthetic peptide, bought: GeneCust
T2 peptide: {FITC}-HTNET[pS]L

T3: FITC-KRpSFIESNV (TANC1 peptide, phosphorylated at p-6) (human)
T3 construct: C-terminal peptide of human TANC1; also called TANC1 phosphopeptide; source: synthetic peptide, bought: GeneCust
T3 peptide: {FITC}-KR[pS]FIESNV

T4: FITC-KREFIESNV (TANC1 peptide, phosphomimetic at p-6) (human, Ser to Glu at p-6 (stands in the printed letters))
T4 construct: also called phosphomimetic TANC1; source: synthetic peptide, bought: GeneCust
T4 peptide: {FITC}-KREFIESNV

T5: FITC-RLTETRL (RPS6KA2 peptide, phosphomimetic at p-3) (human, S730E (stands in the printed letters))
T5 construct: also called phosphomimetic RPS6KA2; source: synthetic peptide, bought: GeneCust
T5 peptide: {FITC}-RLTETRL

B1: Scribble PDZ1 (His-tagged, aa 719-829) (domain or fragment)
chain: not shown
notes: human Scribble, PDZ1, aa 719-829, in pETM-11; Used for MST and ITC; removal of the His tag is told only for the NMR samples; also called Scribble PDZ1 wild type; source: E. coli BL21 Gold (DE3), purified (Ni2+ Sepharose), dialysed
B2: DLG1 PDZ2 (His-tagged, aa 311-407) (domain or fragment, human, UniProt Q12959 311-407, looked up)
chain: KPVSEKIMEIKLIKGPKGLGFSIAGGVGNQHIPGDNSIYVTKIIEGGAAHKDGKLQIGDKLLAVNNVCLEEVTHEEAVTALKNTSDFVYLKVAKPTS
notes: human DLG1, PDZ2, aa 311-407, in a modified pRSET vector; also called DLG PDZ2; source: E. coli BL21 Gold (DE3), purified (Ni2+ Sepharose), dialysed
B3: SHANK1 PDZ (aa 652-761, His-GST tag removed) (domain or fragment, human, UniProt Q9Y566 652-761, looked up)
chain: GPGSDYIIKEKTVLLQKKDSEGFGFVLRGAKAQTPIEEFTPTPAFPALQYLESVDEGGVAWRAGLRMGDFLIEVNGQNVVKVGHRQVVNMIRQGGNTLMVKVVMVTRHPD
notes: human Shank1, PDZ, aa 652-761, in pETM-33; also called untagged SHANK1 PDZ; source: E. coli BL21 Gold (DE3), purified (Ni2+ Sepharose), tag removed with HRV3C protease
B4: MKRLTpSTRL (RPS6KA2 peptide, phosphorylated at p-3, unlabelled) (peptide)
peptide: MKRLT[pS]TRL
notes: C-terminal peptide of human RPS6KA2; also called phospho-RPS6KA2; pRPS6KA2; source: synthetic peptide, bought: GeneCust

What was measured:
Conditions in all cases: both partners purified
[1] = molecular target: T1, FITC-RLTpSTRL (RPS6KA2 peptide, …); assay: MST; FITC-labeled peptide fixed at 25-50 nM, protein (Scribble PDZ1 or DLG1 PDZ2) in a 1:1 dilution series; 50 mM Tris-HCl pH 7.4, 0.1% Tween-20; thermophoresis and T-Jump signal; n = 3
[2] = molecular target: T2, FITC-HTNETpSL (MCC peptide, …); assay: as above
[3] = molecular target: T3, FITC-KRpSFIESNV (TANC1 peptide, …); assay: as above
[4] = molecular target: T4, FITC-KREFIESNV (TANC1 peptide, …); assay: as above
[5] = molecular target: T5, FITC-RLTETRL (RPS6KA2 peptide, …); assay: as above
[6] = molecular target: T1, FITC-RLTpSTRL (RPS6KA2 peptide, …); assay: MST; FITC-labeled peptide fixed at 25-50 nM, untagged SHANK1 PDZ in a dilution series; PBS, 10 mM MgCl2, 0.05% Tween-20; n = 3
Scribble PDZ1 R762A = molecular target: T6, Scribble PDZ1 R762A (human, UniProt Q14160 719-829, R762A); assay: ITC; iTC200, 25°C, 20 mM HEPES pH 7.4; protein 50-100 μM in the cell, peptide 0.64-3 mM in the syringe; single-site fit, stoichiometry fixed to 0.8-1.1; n = 3
T6 construct: human Scribble, PDZ1, aa 719-829, in pETM-11, point mutant; Used for ITC; also called mutational background; source: E. coli BL21 Gold (DE3), purified (Ni2+ Sepharose), dialysed

[7] = molecular target: B1; assay: as above
[8] = molecular target: T7, Scribble PDZ1 R762A/A743R (human, UniProt Q14160 719-829, R762A | A743R); assay: as above
T7 construct: human Scribble, PDZ1, aa 719-829, A743R introduced in the background of R762A; also called R762A/A743R mutant; source: E. coli BL21 Gold (DE3), purified (Ni2+ Sepharose), dialysed
T7 sequence (Q14160 719-829 A743R/R762A): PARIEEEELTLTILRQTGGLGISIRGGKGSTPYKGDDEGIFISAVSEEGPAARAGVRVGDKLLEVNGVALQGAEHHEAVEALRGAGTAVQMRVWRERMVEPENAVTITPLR

T6 sequence (Q14160 719-829 R762A): as the sequence (Q14160 719-829 A743R/R762A) above, with R25A counted along it

Q: For B1, which “fold higher affinity than for the unphosphorylated peptide” value (“fold higher affinity than” below) [1] is on record?
A: 5 fold

Q: What about the “fold higher affinity than” value [2] of the same binder?
A: 3 fold

Q: And the “fold lower affinity than for the unphosphorylated peptide” value [3]?
A: 2 fold

Q: Which results are given for B2?
A: fold lower affinity than for the unphosphorylated peptide [4]: 2.4 fold; fold lower affinity than for the unphosphorylated peptide [3]: 2.9 fold; fold higher affinity than for the unphosphorylated peptide [5]: 1.3 fold

Q: How did the “fold lower affinity than for the unphosphorylated peptide” value [6] turn out when B3 was run?
A: 3.6 fold

Q: With B4 as the binder, how does the “fold weaker affinity than the wild type” value (Scribble PDZ1 R762A) read?
A: 6 fold

Q: What about the “fold higher affinity than” value [7] of the same binder?
A: 5 fold

Q: Does B4 bind [8]?
A: binds
